Experimental data from US20220220218A1 (JIANGSU HENGRUI MEDICINE, published 2022).
Residue numbers refer to the chain shown, from its start.

T1: cynomolgus monkey CD73/NT5E protein (His tag), Sino Biological Cat. No. 90192-C08H (cynomolgus monkey, UniProt A0A2K5V5U7 27-547)
T1 construct: also called cynomolgus monkey CD73 protein; cynoCD73; not shown: His tag
T1 sequence: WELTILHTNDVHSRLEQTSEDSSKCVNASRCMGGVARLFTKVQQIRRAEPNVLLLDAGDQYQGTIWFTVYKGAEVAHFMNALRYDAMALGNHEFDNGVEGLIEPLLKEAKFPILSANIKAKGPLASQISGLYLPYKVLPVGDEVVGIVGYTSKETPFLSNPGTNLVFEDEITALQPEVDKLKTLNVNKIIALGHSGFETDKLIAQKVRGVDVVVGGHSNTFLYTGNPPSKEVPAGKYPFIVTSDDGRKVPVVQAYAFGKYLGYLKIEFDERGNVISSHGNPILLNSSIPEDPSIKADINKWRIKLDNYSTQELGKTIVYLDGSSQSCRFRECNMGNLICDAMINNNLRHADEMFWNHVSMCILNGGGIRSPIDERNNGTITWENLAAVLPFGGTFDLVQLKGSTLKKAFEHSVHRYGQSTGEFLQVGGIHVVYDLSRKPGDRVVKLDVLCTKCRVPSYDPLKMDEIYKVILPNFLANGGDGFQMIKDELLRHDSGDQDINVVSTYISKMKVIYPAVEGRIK

T2: human CD73 (huCD73) protein, antigen of the Biacore assay (human, UniProt P21589 27-547, limits assumed)
T2 construct: also called human CD73 antigen
T2 sequence (looked up): T1 sequence with T199M, A350T, I466V

B1: Hab110.21 (antibody, human IgG1, kappa, V domains shown)
VH: EVQLVQSGAEVKKPGASVKVSCKASGYTFTSYTMHWVRQAPGQRLEWMGYINPNSFYIEYNQKFKDRVTITRDTSASTAYMELSSLRSEDTAVYYCARGDYDLFYDMDNWGQGTTVTVSS
VL: DIQMTQSPSSLSASVGDRVTITCRASQDIGNSLNWLQQKPGKAIKRLIYATFRLDSGVPSRFSGSRSGTEYTLTISSLQPEDFATYYCQQYASFPWTFGGGTKVEIKR
notes: also called humanized antibody of mab110
B2: Hab127.31d (antibody, human IgG1, kappa, V domains shown)
VH: EVQLVQSGAEVKKPGASVKVSCKASGYTFTAYFMNWVRQAPGQGLEWMGRIYHNKGDTFYSQKFKGRVTMTVDKSTSTVYMELSSLRSEDTAVYYCATSYVGDWGQGTTVTVSS
VL: B1 VL with N31D, K42G, I44L, F52S, R53S, R66G, Q89L
notes: also called humanized antibody of mab127
B3: Hab108.64 (antibody, human IgG1, kappa, V domains shown)
VH: EVTLKQSGPGLVKPTETLTLTCTVSGFSLSSYGIQWVRQPPGKGLEWLGVIWSGGSADYNAAFISRLTISKDTSKSQVVLTMTNMDPVDTATYYCAGQYGSVWGQGTLVTVSS
VL: DIQMTQSPSSLSASVGDRVTITCRASQDIGDRLNWLQQKPGGAIKRLIYATSSLDSGVPKRFSGSGSGTEYTLTISSLQPEDFATYYCLQYAGSWTFGGGTKVEIKR
notes: also called humanized antibody of mab108
B4: CPX006 (antibody CPX-006 disclosed in patent application WO2018013611) (antibody, V domains shown)
VH: QVQLVQSGAEVEKPGASVKVSCKASGYTFTSYWITWVRQAPGQGLEWMGDIYPGSGNTNYNEKFKTRVTITADKSTSTAYMELSSLRSEDTAVYYCAKEGGLTTEDYALDYWGQGTLVTVSS
VL: EIVLTQSPATLSLSPGERATLSCRASKNVSTSGYSYMHWYQQKPGQAPRLLIYLASNLESGIPPRFSGSGYGTDFTLTINNIESEDAAYYFCQHSRELPFTFGQGTKVEIKR

These binders were tested against T1, cynomolgus monkey CD73/NT5E protein … (assay: ELISA; cynomolgus monkey CD73 coated on plate).
Description: The cross-binding activity of anti-CD73 antibodies to cynomolgus monkey CD73 protein was tested by ELISA assay. The cynomolgus monkey CD73 fusion protein was directly coated onto a 96-well microtiter plate. The signal strength after the addition of the antibody was used to determine the binding activity of the antibody to cynomolgus monkey CD73. The specific experimental procedures were as follows:
Cynomolgus monkey CD73 (Sino Biological, Cat No. 90192-C08H) was diluted with PBS, pH7.4 (Shanghai BasalMedia, Cat No. B320) buffer to a concentration of 2 μg/ml, was added into the 96-well microtiter plate at 50 μl/well, and was incubated in an incubator at 37° C. for 2 hours. The liquid was discarded, 250 μl/well blocking solution (5% skim milk diluted in PBS) was added, and incubated in an incubator at 37° C. for 3 hours or at 4° C. overnight (16-18 hours) for blocking. After the blocking was finished, the blocking solution was discarded, the plate was washed for 5 times with PBST buffer, 50 μl/well of various concentrations of each of the test antibodies (purified hybridoma antibodies or humanized antibodies, diluted with sample diluent) were added, and incubated in an incubator at 37° C. for 1 hour. After the incubation was finished, the plate was washed for 5 times with PBST, 50 μl/well of HRP-labeled goat anti-mouse secondary antibody (Jackson Immuno Research, Cat No. 115-035-003) or goat anti-human secondary antibody (Jackson Immuno Research, Cat No. 109-035-003) diluted with sample diluent was added, and incubated at 37° C. for 1 hour. The plate was washed for 5 times with PBST, 50 μl/well of TMB chromogenic substrate (KPL, Cat No. 52-00-03) was added, incubated at room temperature for 5-10 min, and 50 μl/well of 1M H₂SO₄ was added to stop the reaction. The absorbance value was read by a microplate reader (Molecular Devices, VERSA max) at a wavelength of 450 nm, and the data was analyzed with GraphPad Prism 5. The binding of anti-CD73 antibody to monkey CD73 was calculated as EC50 value.
Binder B1 has an EC50 of 0.064 nM.
B2 gave an EC50 of 0.033 nM.
Binder B3 has an EC50 of 0.033 nM.

What follows are binders tested against T2, human CD73 (huCD73) protein, antigen of … (assay: SPR Biacore T200; antibody captured on Protein A chip, CD73 in flow; 1:1 Langmuir).
Text: In this experiment, Biacore instrument was used to determine the affinity of the humanized anti-CD73 antibodies to be tested with human CD73 (huCD73) and monkey CD73 (cynoCD73).
A certain amount of test antibody was affinity-captured with Protein A biosensing chip (Cat. #29127556, GE), and then a certain concentration of human or monkey CD73 antigen was allowed to flow through the surface of the chip. The reaction signals were detected in real time with Biacore instrument (Biacore T200, GE) to generate a binding and dissociation curve. At the end of each cycle, after the dissociation was completed, the biosensor chip was washed and regenerated with Glycine-HCl, pH1.5 (Cat. #BR-1003-54, GE). The running buffer for the assay was 1×HBS-EP buffer solution (Cat. #BR-1001-88, GE).
The data obtained from the experiment was fitted against (1:1) Langmuir model using GE Biacore T200 Evaluation version 3.0 software, and the affinity values were obtained, as shown in Table 12 and Table 13 for details.
B4 gave a Kd of 1.85 nM, a koff of 0.000368 s⁻¹ and a kon of 199000 M⁻¹ s⁻¹.
B1 showed a Kd of 0.0944 nM, a koff of 6.14e-05 s⁻¹ and a kon of 650000 M⁻¹ s⁻¹.
B2 was tested, and the Kd was 0.257 nM, the koff was 5.81e-05 s⁻¹ and the kon was 226000 M⁻¹ s⁻¹.
B3 showed a Kd of 0.412 nM, a koff of 9.24e-05 s⁻¹ and a kon of 224000 M⁻¹ s⁻¹.
